Experimental data reported in paper PMC9039348.

Target: microtubules (MTs) polymerised from porcine brain tubulin, taxol-stabilised (porcine) (UniProt P02550)
Assay: co-sedimentation; GST-rMap7D2 proteins incubated with 0.4 mg/ml taxol-stabilised MTs in polymerization buffer (80 mM PIPES/NaOH pH 6.8, 1 mM MgCl2, 1 mM EGTA, 1 mM GTP) with 15 μM taxol, 20 min at 37°C; centrifuged at 100,000g for 30 min at 37°C through a 50% sucrose cushion; supernatant and pellet by SDS-PAGE, CBB staining, densitometer; Scatchard analysis

- Kd: 600 nM
- stoichiometry N (scale: tubulin α/β heterodimers per GST-rMap7D2 molecule): 10
Substance: GST-rMap7D2 (full length) (from UniProt D4A4L4 1-763) (natural protein)
